Article doi:10.1101/2021.08.25.457658
Read-outs that look alike come from different tables or passages of the source.

Tests used:
[1] = biological target: T1, GST-p50 (NF-kB p50 subunit) (UniProt P19838-2 1-433, del434-969); assay: EMSA
[2] = biological target: T1, GST-p50 (NF-kB p50 subunit); assay: EMSA; remark: listed apart in the source

B1: Spic promoter NF-kB site mutant (dsDNA)
DNA 1: GCTGCAAAGCCGATTTTTTTT
DNA 2: AAAAAAAATCGGCTTTGCAGC
binding result [1]: no binding

B2: Spic promoter NF-kB site WT (dsDNA)
DNA 1: GCTGCAAAGGGGATTTTTTTT
DNA 2: AAAAAAAATCCCCTTTGCAGC
binding result [2]: binds
